Test results taken from article PMC6001692, “Chlamydial virulence factor TarP mimics talin to disrupt the talin‐vinculin complex” (Febs Letters, 2018).
Where no end group is shown, it is not given here.

Assays:
[1] = biological target: T1, FAK‐FAT domain (residues 941–1090) (Mus musculus, UniProt P34152); assay: Fluorescence polarisation assay, fluorescein-labelled LD-motif peptides titrated with FAK-FAT domain; assay type: binding
T1 construct: the FAK‐FAT domain (residues 941–1090); 6xHis (cleaved yes); made in house; host or cells: E. coli BL21 (DE3)
T1 sequence (P34152 904-1052 limits assumed): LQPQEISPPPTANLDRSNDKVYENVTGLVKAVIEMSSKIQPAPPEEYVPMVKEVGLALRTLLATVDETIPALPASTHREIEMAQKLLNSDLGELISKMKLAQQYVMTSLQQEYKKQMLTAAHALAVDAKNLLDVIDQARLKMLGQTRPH
Source text: Chicken vinculin Vd1 (residues 1–259), murine talin R10 (residues 1815–1973), and the FAK‐FAT domain (residues 941–1090) were cloned into a pET151 vector (Invitrogen) and expressed in E .coli BL21 (DE3) cells cultured in LB. Standard nickel‐affinity chromatography was used to purify the His‐tagged recombinant proteins as described previously 15. The proteins were further purified using anion‐exchange chromatography following cleavage of the 6xHis‐tag with TEV protease. Protein concentrations were determined using the respective extinction coefficients at 280 nm.
Peptides with either a C‐ or N‐terminal cysteine were synthesised by GLBiochem (China).
Peptides were coupled to a thiol‐reactive fluorescein dye via the terminal cysteine. Stock solutions were made in phosphate‐buffered saline (PBS; 137 mM NaCl, […], […], […], pH 7.4), 1 mM TCEP and 0.05% Triton X‐100. Excess dye was removed using a PD‐10 desalting column (GE Healthcare, Chicago, IL, USA). […] Fluorescent polarisation (FP) measurements were recorded on a BMGLabTech CLARIOstar plate reader at room temperature and analysed using GraphPad Prism. K d values were calculated with nonlinear curve fitting using a one‐site total binding model. […]

[2] = biological target: T2, vinculin Vd1 (residues 1–259) (Gallus gallus, UniProt P12003); assay: Fluorescence polarisation assay, fluorescein-labelled peptides titrated with vinculin head Vd1; assay type: binding, Chicken; details: FP; negative control; Kd ND in Fig. 1D
T2 construct: Chicken vinculin Vd1 (residues 1–259); 6xHis (cleaved yes); made in house; host or cells: E. coli BL21 (DE3)
Method: Peptides were coupled to a thiol‐reactive fluorescein dye via the terminal cysteine. Stock solutions were made in phosphate‐buffered saline (PBS; 137 mM NaCl, 27 mM KCl, 100 mM Na2HPO4, 18 mM KH2PO4, pH 7.4), 1 mM TCEP and 0.05% Triton X‐100. Excess dye was removed using a PD‐10 desalting column (GE Healthcare, Chicago, IL, USA). Titrations were performed in PBS using a constant 1 μM concentration of fluorescein‐coupled peptide with increasing concentration of protein; final volume 100 μL in a black 96‐well plate. Fluorescent polarisation (FP) measurements were recorded on a BMGLabTech CLARIOstar plate reader at room temperature and analysed using GraphPad Prism. K d values were calculated with nonlinear curve fitting using a one‐site total binding model.
In this assay, synthetic VBS peptides (Materials and methods) were fluorescently labelled with fluorescein and titrated against an increasing concentration of Vd1.

[3] = biological target: FAK‐FAT domain (residues 941–1090); assay: fluorescence polarisation; 1 μM fluorescein-coupled peptide constant, increasing concentration of protein; PBS, room temperature, 96-well plate; one-site total binding fit; triplicate
[4] = biological target: T3, Chicken vinculin Vd1 (residues 1–259) (chicken, UniProt P12003 1-259); assay: as above; details: both partners purified
T3 construct: also called vinculin head; vinculin head domain
T3 sequence (looked up): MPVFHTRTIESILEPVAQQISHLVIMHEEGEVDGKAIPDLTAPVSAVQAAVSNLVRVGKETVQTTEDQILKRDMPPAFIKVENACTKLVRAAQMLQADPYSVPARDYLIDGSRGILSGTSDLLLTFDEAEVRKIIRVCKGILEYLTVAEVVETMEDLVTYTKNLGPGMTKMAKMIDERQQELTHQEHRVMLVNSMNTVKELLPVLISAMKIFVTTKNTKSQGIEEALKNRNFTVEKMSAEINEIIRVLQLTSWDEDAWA

[5] = biological target: T3, Chicken vinculin Vd1 (residues 1–259); assay: SEC-MALS; analytical gel filtration, Superdex-75, 4 °C, 50 mM Tris pH 7.5, 150 mM NaCl, 2 mM DTT; 100 μM of each protein at 1:1 (talin:Vd1), incubated at 37 °C for 30 min; details: both partners purified

Molecule: CC(C)C[C@H](NC(=O)[C@H](CCC(=O)O)NC(=O)[C@H](CC(C)C)NC(=O)[C@H](CC(C)C)NC(=O)[C@H](CC(C)C)NC(=O)[C@H](CCCNC(=N)N)NC(=O)[C@H](CC(=O)O)NC(=O)[C@H](CC(C)C)NC(=O)[C@H](CCC(=O)O)NC(=O)[C@H](CO)NC(=O)[C@H](CC(C)C)NC(=O)[C@H](CC(N)=O)NC(=O)[C@@H](N)CS)C(=O)N[C@@H](CC(N)=O)C(=O)O [Paxillin LD2, reference compound]
- Kd ([1]; FP, 1 μM fluorescein-coupled peptide, increasing FAK-FAT, PBS, room temperature, ± SE, read-out: Dissociation constant Kd for binding to FAK-FAT): 9.01 µM

Molecule: EGAEGLEHLLPQLRSHLDDAFDQQGN‐C [TarP LD, synthetic LD-motif peptide of C. caviae TarP, residues 655–680, with C-terminal cysteine]
- Binding to FAK-FAT by FP (in words) ([1]; fluorescein-labelled peptide, Kd ND in Fig. 4B): no increase in polarisation
- Interaction with Vd1 (in words) [2]: does not interact with Vd1

Molecule: CNLSELDRLLLELN (fluorescein (thiol-reactive dye) coupled via the N-terminal cysteine) [Pax_LD2 peptide (paxillin residues 141–153) with N-terminal cysteine, fluorescein-coupled]
- Kd [3]: 9 µM

Molecule: LLEAARNTTTMLSKTLSKVC(fluorescein) (source: synthetic peptide (GLBiochem)) [TarP_VBS1 peptide (C. caviae residues 850–868) with C-terminal cysteine, fluorescein-coupled]
- Kd [4]: 1.29 µM

B1: mTal1_VBS36 peptide (talin residues 1622–1656) with N-terminal cysteine, fluorescein-coupled (peptide)
peptide: C(fluorescein)VNPRDPPRWSVLAGHSRTVSDSIKKLITSMRDKAP
notes: also called talin VBS36; source: synthetic peptide (GLBiochem)
- Kd [4]: 1.03 µM

B2: murine talin R10 (residues 1815–1973) (domain or fragment, UniProt P26039 1815-1973, looked up)
chain: NEAASAAGVVGGMVDSITQAINQLDEGPMGDPEGSFVDYQTTMVRTAKAIAVTVQEMVTKSNTSPEELGPLANQLTSDYGRLASQAKPAAVAAENEEIGAHIKHRVQELGHGCSALVTKAGALQCSPSDVYTKKELIECARRVSEKVSHVLAALQAGNR
notes: also called talin rod domain R10
- stoichiometry N [5]: 1
